Measured values taken from publication PMC12535202, “N3A motifs in RIβ mediate allosteric crosstalk between cAMP and ATP in PKA activation” (Protein Science : A Publication of the Protein Society, 2025).

Target: the molecule itself
Test: non-reducing SDS-PAGE with Western blot; mouse tissue supernatants (70 μg), sample buffer without reducing agent, unboiled, 8% SDS-PAGE, blot probed with an RIβ-specific antibody

B1: RIβ from mouse brain tissue (natural protein, mouse (endogenous in mouse brain), UniProt P12849 1-381, looked up)
chain: MASPSCFHSEDEDSLKGCEMYVQKHGIQQVLKECIVHLCVAKPDRPLRFLREHFEKLEKEENRQILARQKSNSQCDSHDEEISPTPPNPVVKARRRRGGVSAEVYTEEDAVSYVRKVIPKDYKTMTALAKAISKNVLFSHLDDNERSDIFDAMFPVTHIGGETVIQQGNEGDNFYVIDQGEVDVYVNGEWVTNISEGGSFGELALIYGTPRAATVKAKTDLKLWGIDRDSYRRILMGSTLRKRKMYEEFLSKVSILESLEKWERLTVADALEPVQFEDGEKIVVQGEPGDDFYIITEGTASVLQRRSPNEEYVEVGRLGPSDYFGEIALLLNRPRAATVVARGPLKCVKLDRPRFERVLGPCSEILKRNIQRYNSFISLTV
modifications: disulfide bonded (dimer seen under non-reduced conditions)
notes: PKA regulatory subunit RIβ, endogenous in mouse brain, detected with an RIβ-specific antibody; source: endogenous, mouse brain homogenate (digitonin lysis buffer), supernatant
Q: With B1 as the protein, how does the “stoichiometry N” value read?
A: The value was 2.
